Our source for the IC50 of in vitro kinase assay (32P incorporation into Gst-Rb) values is patent US20020068706A1.

Assay [1] deals with cdc2/cyclin B complex (UniProt P06493). The assay is described as follows: cell-based or functional assay.
The target in assay [2] is CDK4/cyclin D1 complex (UniProt P11802). Kind of assay: cell-based or functional assay.
Sequence of CDK4/cyclin D1 complex (P11802 whole entry, chain 1 of 2): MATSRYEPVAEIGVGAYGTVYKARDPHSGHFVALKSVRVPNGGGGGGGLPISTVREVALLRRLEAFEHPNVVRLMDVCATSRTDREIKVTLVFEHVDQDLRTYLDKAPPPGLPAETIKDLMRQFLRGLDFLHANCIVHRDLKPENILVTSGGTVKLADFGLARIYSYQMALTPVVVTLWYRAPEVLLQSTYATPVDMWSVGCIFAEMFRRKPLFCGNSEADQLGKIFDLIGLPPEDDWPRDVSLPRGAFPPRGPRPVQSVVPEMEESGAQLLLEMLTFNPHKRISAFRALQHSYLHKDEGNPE
Sequence of CDK4/cyclin D1 complex (P24385 whole entry, chain 2 of 2, further chain): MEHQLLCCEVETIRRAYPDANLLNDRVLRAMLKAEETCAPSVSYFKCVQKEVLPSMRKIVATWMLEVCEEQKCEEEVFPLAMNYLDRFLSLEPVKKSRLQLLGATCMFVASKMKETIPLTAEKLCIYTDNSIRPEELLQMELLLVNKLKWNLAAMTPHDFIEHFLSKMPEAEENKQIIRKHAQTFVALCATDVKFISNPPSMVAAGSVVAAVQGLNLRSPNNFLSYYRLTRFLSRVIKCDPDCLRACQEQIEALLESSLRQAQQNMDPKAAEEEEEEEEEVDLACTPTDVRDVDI

Sequence of cdc2/cyclin B complex (P06493 whole entry, one chain of several): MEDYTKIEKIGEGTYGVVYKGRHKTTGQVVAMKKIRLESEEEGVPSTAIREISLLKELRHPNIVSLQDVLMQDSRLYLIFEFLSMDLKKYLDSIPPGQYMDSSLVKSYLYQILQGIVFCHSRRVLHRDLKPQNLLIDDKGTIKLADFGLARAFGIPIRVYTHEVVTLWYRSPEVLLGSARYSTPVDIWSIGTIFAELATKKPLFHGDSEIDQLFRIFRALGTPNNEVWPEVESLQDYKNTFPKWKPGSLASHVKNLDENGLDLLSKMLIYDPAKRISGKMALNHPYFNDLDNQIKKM

As for p27 (from UniProt P46527 1-198), the results for the IC50 of in vitro kinase assay (32P incorporation into Gst-Rb) in assay [1] and in assay [2] were 20 nM and 63 nM, respectively.
